Experimental findings from US5733730, “Telomere repeat binding factor and diagnostic and therapeutic use thereof” (The Rockefeller University) are described below.

Data set [1] has as its target TRF (HTRF4.1, TRF1) partial ORF from N-terminal XhoI site to stop (Homo sapiens, UniProt P54274 SEQ:45-439). The data set is described as follows: EMSA; reticulocyte lysate; no complex without TRF cDNA; text of Example 4 prints probe as (TTAGGG)2. Conditions: tags: His6 (pET28b, Novagen) N-terminal fusion; label: radiolabelled. An excerpt: Proof that the cDNAs encode TRF activity. One of the human cDNAs (HTRF4.1) was used to construct a fusion protein in which part of the TRF open reading frame from the N-terminal Xho I site to the natural termination codon at the Hind III site was inserted into the pET28b His6Tag expression vector from Novagen (Madison, Wis.). This new, chimeric open reading frame contained an initiator ATG codon with "Kozak rules" environment at its 5' end as well as an T7 RNA polymerase promoter sequence upstream. This construct was used for in vitro coupled transcription/translation (using a kit from Promega) resulting in synthetic protein (labelled with […]) with an apparent molecular weight (MW) of 60 kD. The in vitro synthesized protein was used in a gel-shift assay with a double stranded (TTAGGG)_2 repeat probe and shown to form a complex that migrates close to the HeLa TRF gel-shift complex.

Data set [2] addresses T1, TRF (MTRF12, full length) (Mus musculus, UniProt P70371 P70371:1-421).
T1 sequence: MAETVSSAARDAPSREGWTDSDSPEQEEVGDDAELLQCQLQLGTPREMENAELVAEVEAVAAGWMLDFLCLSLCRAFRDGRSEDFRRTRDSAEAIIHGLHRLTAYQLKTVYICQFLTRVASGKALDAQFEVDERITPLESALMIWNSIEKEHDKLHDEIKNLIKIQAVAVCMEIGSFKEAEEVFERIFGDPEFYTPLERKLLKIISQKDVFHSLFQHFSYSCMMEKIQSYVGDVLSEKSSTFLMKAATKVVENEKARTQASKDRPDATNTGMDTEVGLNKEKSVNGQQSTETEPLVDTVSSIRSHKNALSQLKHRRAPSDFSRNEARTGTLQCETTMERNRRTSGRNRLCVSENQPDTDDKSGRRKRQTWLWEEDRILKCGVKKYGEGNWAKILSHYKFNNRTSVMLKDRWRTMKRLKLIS
The data set is described as follows: EMSA; reticulocyte lysate; complex co-migrates with J558 mouse TRF. The following applies: label: radiolabelled. An excerpt: The mouse cDNA (MTRF12) contained its own initiator codon and was transcribed and translated without further modification using the T3 promoter in its pBluescript vector. Similar to the human cDNA, a ~60 kD protein was synthesized that bound TTAGGG repeats but not TYGGGG or TTAGGC repeats (FIG. 6).
In general terms: A gel shift assay detects complexes by their altered migration in electrophoresis.

Data set [3] deals with T2, TRF purified from HeLa nuclear extract (Homo sapiens, UniProt P54274 SEQ:1-439).
T2 chain: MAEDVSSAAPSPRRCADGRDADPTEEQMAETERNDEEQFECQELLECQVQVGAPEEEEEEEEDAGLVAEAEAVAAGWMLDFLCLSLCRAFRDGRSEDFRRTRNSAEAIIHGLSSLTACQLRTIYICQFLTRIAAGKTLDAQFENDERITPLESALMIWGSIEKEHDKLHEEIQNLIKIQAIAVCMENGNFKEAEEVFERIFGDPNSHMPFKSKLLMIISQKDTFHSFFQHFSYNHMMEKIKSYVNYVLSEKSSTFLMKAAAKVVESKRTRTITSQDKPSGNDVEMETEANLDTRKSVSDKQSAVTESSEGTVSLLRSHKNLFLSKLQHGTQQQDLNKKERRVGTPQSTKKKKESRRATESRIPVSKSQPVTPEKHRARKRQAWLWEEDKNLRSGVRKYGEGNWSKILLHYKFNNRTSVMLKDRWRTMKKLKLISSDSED
Briefly: EMSA; column fractions in 100 mM KCl, 20 mM HEPES, 3 mM MgCl2, 20% glycerol, 0.1% NP-40; binding lost when highly purified, rescued by casein. The following applies: label: radiolabelled. As to the method: TRF was isolated from a total of 9.2×10^11 HeLa Cells, equivalent to 940 liters of culture (in Joklik's Media, supplemented with bovine calf serum, 2 mM L-glutamine, 0.1 mM non-essential amino acids, and penicillin/streptomycin). A nuclear extract containing 4 grams of protein and about 650 pmol of TRF (1 pmol TRF is defined as the amount of protein required to complex 1 pmol of labelled probe), as determined by quantitation using a PhosphoImager, was obtained from the cells and the soluble fraction was then purified over a series of ion exchange and affinity columns, as noted above. For each column, the sample was loaded in buffer containing 100 mM KCl and the flow-through was reloaded. The columns were developed in buffer with increasing potassium chloride salt concentration, with a final stripping of the column with 1M salt. All fractions were dialyzed to 100 mM KCl, 20 mM HEPES, 3 mM MgCl_2, 20% glycerol, and 0.1% NP-40 (nonidet-P40). Activity was determined by gel shift assay using a probe of 145 bp fragment containing (TTAGGG)_2 having the following sequence (SEQ D NO:21): […]

B1: (TTAGGG)12 restriction fragment probe (dsDNA)
DNA 1: TTAGGGTTAGGGTTAGGGTTAGGGTTAGGGTTAGGGTTAGGGTTAGGGTTAGGGTTAGGGTTAGGGTTAGGG
DNA 2: CCCTAACCCTAACCCTAACCCTAACCCTAACCCTAACCCTAACCCTAACCCTAACCCTAACCCTAACCCTAA
B1: the binding result in data set [1] and in data set [2] was “binds” each time.

B2: 145 bp TTAGGG repeat gel-shift probe (dsDNA)
DNA 1: GTACCCGGGGATCGTGACTCTAGAGGGGCCCTAACCCTAACCCTAACCCTAACCCTAACCCTAACCCTAACCCTAACCCTAACCCTAACCCTAACCCTAACCCTAACCCGGGTCGAATTCGATCTCTAGAGTCGACCTGCAGGCATGC
DNA 2: GCATGCCTGCAGGTCGACTCTAGAGATCGAATTCGACCCGGGTTAGGGTTAGGGTTAGGGTTAGGGTTAGGGTTAGGGTTAGGGTTAGGGTTAGGGTTAGGGTTAGGGTTAGGGTTAGGGCCCCTCTAGAGTCACGATCCCCGGGTAC
As for B2, the binding result in data set [3] is reported as “binds”.
